Experimental data as given in patent US20260231954A1, “PESTICIDAL ENZYMES FOR USE ON NEMATODES, INSECTS, AND MOLLUSKS” (priority 2023, published 2026).

Columns and labels:
[1] = tested on: Fall armyworm (Spodoptera frugiperda); experiment: Diet-surface overlay (DSO) bioassay on Fall armyworm; assay type: in vivo
Description: (§1) Diet-surface overlay bioassays are conducted with artificial diet mixes without antibiotics in 1.5 cm^2 cell bioassay trays(s). Artificial diets are commercially available from Southland Products Inc. Diets were prepared by dispersing 0.5 mL of molten diet to each 1.5 cm^2 cell. After solidification, 0.1 mL enzyme treatments were dispersed on top of diet in each cell and the tray was gently rocked in an orbital shaker to spread the liquid uniformly over the diet surface. Trays were placed under clean airflow until the surface of each cell was uniformly dried. One or two 16-cell sections were used per treatment (the number in larvae treated was 16 or 32).
(§2) One healthy first instar larva was placed into each treatment cell, each 16-cell section was covered with a re-sealable lid and incubated at 27° C. and light-dark period of 16:8 hrs. After 7 days, and according to the species, the number of individuals in the following developmental categories was recorded.
(§3) Negative/untreated controls were treated with filtered water and positive controls were treated with lethal doses of Bacillus thuringiensis subsp. Kurstaki (Btk) spores at 1000 ppm.

[2] = tested on: soybean cyst nematode (SCN, Heterodera glycines); experiment: Soybean cyst nematode reproduction on soybean after seed treatment, controlled environment (cysts per gram of root tissue or per plant); assay type: in vivo; conditions: for % Comparison to Control (figure in parentheses): change vs base control
[3] = tested on: Btk resistant Diamondback moth; experiment: Diet-surface overlay (DSO) bioassay on Btk resistant Diamondback moth; assay type: in vivo, Plutella xylostella; conditions: number of individuals, n = 32, 7 days
Description: as §1, §2
Diamondback moth (Plutella xylostella): Dead Larva (lack of movement), Larva Stage I (≤50% relative size), Larva Stage II (100% relative size, full size), Early Pupa (light green color), Late Pupa (light-dark brown color), and Adult.
as §3
However, both neutral proteases reduced the number of individuals reaching adult stage.
The effect of lipase (10× enzyme rate) and free lipases were tested on a Diamondback Moth Btk resistant strain. Free Lipases from Burkholderia cepacia (Bc) and Pseudomonas fluorescens (Pf) were tested along with Lipase (SEQ ID NO: 76) and the results are shown below in Table 45.

[4] = Table 50, esterases, Fall armyworm, number of individuals of n = 32
[5] = Table 50, esterases, Fall armyworm, number of individuals of n = 32, DSO bioassay, dose per treatment in U/mL Diet
[6] = Table 46, number of individuals, n = 32, 7 days
[7] = Table 48, chitinases, Fall armyworm, number of individuals of n = 32, DSO bioassay

B1: H6-pnbA (SEQ ID NO: 94): recombinant six-histidine tagged esterase pnbA from Bacillus subtilis (protein, listed as Bacillus subtilis)
chain: MTHQIVTTQYGKVKGTTENGVHKWKGIPYAKPPVGQWRFKAPEPPEVWEDVLDATAYGSICPQPSDLLSLSYTELPRQSEDCLYVNVFAPDTPSKNLPVMVWIHGGAFYLGAGSEPLYDGSKLAAQGEVIVVTLNYRLGPFGFLHLSSFNEAYSDNLGLLDQAAALKWVRENISAFGGDPDNVTVFGESAGGMSIAALLAMPAAKGLFQKAIMESGASRTMTKEQAASTSAAFLQVLGINEGQLDKLHTVSAEDLLKAADQLRIAEKENIFQLFFQPALDPKTLPEEPEKAIAEGAASGIPLLIGTTRDEGYLFFTPDSDVHSQETLDAALEYLLGKPLAEKVADLYPRSLESQIHMMTDLLFWRPAVAYASAQSHYAPVWMYRFDWHPKKPPYNKAFHALELPFVFGNLDGLERMAKAEITDEVKQLSHTIQSAWITFAKTGNPSTEAVNWPAYHEETRETLILDSEITIENDPESEKRQKLFPSKGE
modifications: Esterase (pnbA)
Larva Stage I [1, 4]: 0 | Larva Stage II [1, 4]: 0 | Larva Stage III [1, 4]: 15 | Larva Stage IV [1, 4]: 17 | Dead Larva [1, 5]: 0

B2: Trypsin-like protease (SEQ ID NO: 126): Trichoderma lixii trypsin-like protease (protein, listed as Trichoderma lixii)
chain: AAITPRGSDIVGGTTAALGEFPYIVSLSTGGSHFCGGVLIDSRTVVTAGHCTIDQRASSVKVRAGTLTWASGGTQVGVSSLTLHPSYTVDSQGVPDNDVGVWHLATAIPTSSTIGYATLPASGSDPAAGTTLTVAGWGTTSENSNSLPSTLRKVSVPVVARATCDSDYDGEISNNMFCAAVAAGGKDSCSGDSGGPIIDPSGTLVGVVSWGQGCAERGFPGVYTRLGNYVSFINSNRG
modifications: H182 trypsin-like protease
Average cysts per g of root tissue ([2]; Table 11, free enzyme seed treatment 2 fl. oz. per unit of seed (ILEVO 0.15 mg active ingredient per seed), soybean P18A98X, 3 weeks after inoculation): 18.6 cysts per g of root tissue

B3: Pseudomonas sp. esterase free enzyme concentrate (SEQ ID NO: 248): free enzyme concentrated in an Amicon Ultra 4K filter unit, 4× volumetric concentration (protein, listed as Pseudomonas sp.)
chain: MTEPLILQPVKPADACVIWLHGLGADRYDFLPVAEALQEILLSTRFVLPQAPTRPVTINGGYAMPSWYDIKAMSPARAIDRDELEASADRIIELIEEQRSSGIDASRIFLAGFSQGGAVVYHTAFLKWQGPLGGVLALSTYAPTFSDELELSASQQRIPVLSLHGQFDNVVQNSMGRTAYEYLKAHGVTVTWQEYPMEHEVLPEEIRDIGTWLSERLR
modifications: concentrated
notes: free enzyme concentrated in an Amicon Ultra 4K filter unit, 4× volumetric concentration
% Comparison to Control (figure in parentheses) ([2]; Table 16): −25% | Average cysts per g of root tissue ([2]; Table 16, free enzyme or 4x concentrate seed treatment, soybean 2830E3): 182.1 cysts per g of root tissue

B4: Chitinase C (SEQ ID NO: 249): Chitinase C (protein, listed as Bacillus thuringiensis)
chain: DSPKQSQKIVGYFPSWGVYGRNYQVADIDASKLTHLNYAFADICWKGKHGNPSTHPDNPNKQTWNCKESGVPLQNKEVPNGTLVLGEPWADVTKSYPGSGTTWEDCDKYARCGNFGELKRLKAKYPHLKTIISVGGWTWSNRFSDMAADEKTRKVFAESTVAFLRAYGFDGVDLDWEYPGVETIPGGSYRPEDKQNFTLLLQDVRNALNKAGAEDGKQYLLTIASGASQRYADHTELKKISQILDWINIMTYDFHGGWEATSNHNAALYKDPNDPAANTNFYVDGAIDVYTNEGVPVDKLVLGVPFYGRGWKSCGKENNGQYQPCKPGSDGKLASKGTWDDYSTGDTGVYDYGDLTANYVNKNGFVRYWNDTAKVPYLYNATTGTFISYDDNESMKYKTDYIKTKGLSGAMFWELSGDCRTSPKYSCSGPKLLDTLVKELLGGPINQKDTEPPTNVKNIIVTNKTSSSVQLSWTASTDNVGVTEYEITAGEEKWSATTNSITIKNLKPNTEYTFSVIAKDASGNKSHPTALTVKTDEANTTPPDGNGTATFSVTSNWGSGYNFSIIIKNNGTIPIKNWKLEFDYSGNLTQVWDSKISSKTNNHYVITNAGWNGEIPPGGSITIGGAGTGNPAELLNAVISEN
% Comparison to Control (figure in parentheses) ([2]; Table 18): −22% | Average cysts per g of root tissue ([2]; Table 18, free enzyme seed treatment): 45.7 cysts per g of root tissue

B5: H6-pytH (SEQ ID NO: 95): recombinant six-histidine tagged esterase pytH from Sphingobium wenxiniae (protein, listed as Sphingobium wenxiniae)
chain: MTVTDIILIHGALNRGACYDAVVPLLEARGYRVHAPDLTGHTPGDGGHLSVVDMEHYTRPVADILARAEGQSILLGHSLGGASISWLAQHHPDKVAGLIYLTAVLTAPGITPETFVLPGEPNRGTPHALDLIQPVDEGRGLQADFSRLERLREVFMGDYPGEGMPPAEQFIQTQSTVPFGTPNPMEGRALEIPRLYIEALDDVVIPIAVQRQMQKEFPGPVAVVSLPASHAPYYSMPERLAEAIADFADAPAEYRQTATKAGPDRPAGADGGRADRADLP
modifications: Esterase (pytH)
Larva Stage I [1, 4]: 0 | Larva Stage II [1, 4]: 0 | Larva Stage III [1, 4]: 13 | Larva Stage IV [1, 4]: 19 | Dead Larva [1, 5]: 0

B6: Bacillus thuringiensis Lipase 1 (SEQ ID NO: 250): Bacillus thuringiensis Lipase 1 (protein, listed as Bacillus thuringiensis)
chain: YGFVSGVNDVLNPKASNLIKKTDVVAKEKKKTGTLQIVSLGDSLTRGVGDKEGIGYVGRMKEDLQKDYKQKIALTNLAVSGAKMPDLLKQIESNGAQYSIKQADVIVLTIGGNDLFPGWESLGKIDLETYRPDTETFQNEAKKIIEEIRKLNTDSPIFWLGLYNPFEDVEDLKGSSNIVVDWNASLEKLALNDKNVYITPTFDLFQNRGKDLLYSDHFHPNEVGYTYMAERLVQNVVSKLKLEQGGVK
% Comparison to Control (figure in parentheses) ([2]; Table 19): −25% | Average cysts per g of root tissue ([2]; Table 19, free enzyme seed treatment, soybean 2830E3): 332.0 cysts per g of root tissue

B7: Lipase: lipase of Table 46, not further identified; probably Lipase (SEQ ID NO: 76) (protein, listed as Bacillus thuringiensis)
chain: MRLMRRCVALLIVFFIMAPMISTNVRAGVVKELKTGFPDQEVFTPGEWFLGQKPANYDENKPPILFVQGRNGNADSWYGKTVYHDINDMYDYALKAGYQTVFIQLYDAAGKGSASQWDNGKLLAQKLEEIYNHFGKKVNIVAHSKGGIDTQAALVGYGANRFVGNVITLATPHHGSNLADLSYSWWAGWLASILGQKDDGTYSLQMGEMAKFRSTIDNNPAAKLNRYYTVTGTSWGPVFSALSMGGLYLSSYGSNDGLVNECSAKLPYGTHLFTDSRFDHDNIRKGSAVFARIEPYLRTANVPVPALVASSTSSNENIEQLNTTSNQSILGGELPQNQWIEQTVAVDKKAEGIVSILTASSDVEVQMISPKGKVYTNKDSVITTGEGESFFGGATIRTFKFDKMDVGEWKVKMMTKQSKDAYLVVSDYKTGAPFVLQMPTKVKANKSEYKLKKSPVAPEMKGDLSITVRVVNKEGKLVSEFNELQNVNNNTFTGALKNIKQPGVYNVTMDIKGMNKEGKSYSRTIVKSVYVEK
modifications: Lipase (Lip1 H192)
Dead Larva ([1]; Table 46, lipases, number of individuals, n = 32, 7 days): 5 | Larva Stage I [1, 6]: 2 | Larva Stage II [1, 6]: 10 | Larva Stage III [1, 6]: 15 | Larva Stage IV [1, 6]: 0

B8: Chitinase (SEQ ID NO: 185): recombinant chitinase from Akanthomyces lecanii; Acidic Chitinase 1 (Chit1) (protein, listed as Akanthomyces lecanii)
chain: MAKCTSPDRKCPAPLIDAPINSFMTDGWADTDIHWEGDSWNDSGTNIYGCLKQLNILKKHNRNFKVLLSIGGWTYSSNFPAPASTPEGRDTFAKSCVELVKNLGFDGIDIDWEYPKTAEEAGHFVELLAEVRKQLDEYSARAANNYHFELSVACPAGPDNFQKLNISGMDAYLDFWNLMAYDYAGSWDKNSGHQANLYPCKDAPGCTPFSTVAAVDYYTSNGVSPDKLVLGMPLYGRAFENCDGIGQPFQGVGQGTWEQGVYDYKKLPLEGAEEHKDDDSCATYCHNAESRTLVTYDTPELAKTKADFIKERGLGGGMWWESSADKAGDDSLIQVVVSELGGPEALKQQQNCISYPETKYDNLRDGLPDN
modifications: Acidic Chitinase 1 (Chit1-H195)
Dead Larva ([3]; Table 47, chitinases, rate in mU/mL diet column): 2 | Adult ([3]; Table 47): 1 | Early Pupa ([3]; Table 47): 8 | Larva Stage I ([3]; Table 47): 2 | Larva Stage II ([3]; Table 47): 2 | Late Pupa ([3]; Table 47): 17 | Larva Stage I [1, 7]: 4 | Larva Stage II [1, 7]: 5 | Larva Stage III [1, 7]: 8 | Larva Stage IV [1, 7]: 8 | Dead Larva ([1]; Table 48, chitinases, Fall armyworm, number of individuals of n = 32, DSO bioassay, dose per treatment in mU/mL Diet): 7
